Results on one molecule are retold here after PMC8576073, “Ultra pH‐sensitive detection of total and free prostate‐specific antigen using electrochemical aptasensor based on reduced graphene oxide/gold nanoparticles emphasis on TiO2/carbon quantum dots as a r”.

In the series the target is prostate-specific antigen (PSA) (human, UniProt P07288 25-261). Kind of series: electrochemical aptasensor (CV, SWV, EIS); ferrocyanide or TiO2/CQDs redox probe; 30 min binding; detection 0.5-7 ng/ml; LOD is not a Kd; Aptamer electrode washed with 0.1 mol/L PBS pH 7.0; PSA 30 min; 1.0 mM K3/K4[Fe(CN)6] (1:1), or TiO2/CQDs electrolyte at pH 5.4 and pH 8; temperature not stated. The note with it: protein: commercial.
Sequence of prostate-specific antigen (PSA) (P07288 25-261): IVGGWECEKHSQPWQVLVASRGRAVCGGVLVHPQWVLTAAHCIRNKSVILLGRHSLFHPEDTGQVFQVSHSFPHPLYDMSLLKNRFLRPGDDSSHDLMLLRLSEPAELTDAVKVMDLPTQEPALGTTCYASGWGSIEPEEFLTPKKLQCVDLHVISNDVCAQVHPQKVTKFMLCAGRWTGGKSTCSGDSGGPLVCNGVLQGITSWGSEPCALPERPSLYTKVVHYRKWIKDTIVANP

As to TTTTTTTTTTATTAAAGCTCGCCATCAAATAGCTGC (ssDNA, 5'-HS (thiol)) [thiolated PSA binding DNA aptamer], the binding result was “binds”.
